Results reported in article PMC7840130 (Science Advances, 2021).
Where two headings read alike, the source gives them in different places. One block for each molecule: values may come before it.

Experiments:
[1] = target: BcsQ (in the Bcs macrocomplex) (E. coli 1094) (UniProt P37655); experiment: cryo-EM structure
[2] = target: BcsQ^His (E. coli 1094) (UniProt P37655); experiment: crystal structure
[3] = target: T1, BcsA^HA-FLAG (in the Bcs macrocomplex) (E. coli 1094, UniProt P37653 1-872); experiment: cryo-EM structure
T1 sequence (looked up): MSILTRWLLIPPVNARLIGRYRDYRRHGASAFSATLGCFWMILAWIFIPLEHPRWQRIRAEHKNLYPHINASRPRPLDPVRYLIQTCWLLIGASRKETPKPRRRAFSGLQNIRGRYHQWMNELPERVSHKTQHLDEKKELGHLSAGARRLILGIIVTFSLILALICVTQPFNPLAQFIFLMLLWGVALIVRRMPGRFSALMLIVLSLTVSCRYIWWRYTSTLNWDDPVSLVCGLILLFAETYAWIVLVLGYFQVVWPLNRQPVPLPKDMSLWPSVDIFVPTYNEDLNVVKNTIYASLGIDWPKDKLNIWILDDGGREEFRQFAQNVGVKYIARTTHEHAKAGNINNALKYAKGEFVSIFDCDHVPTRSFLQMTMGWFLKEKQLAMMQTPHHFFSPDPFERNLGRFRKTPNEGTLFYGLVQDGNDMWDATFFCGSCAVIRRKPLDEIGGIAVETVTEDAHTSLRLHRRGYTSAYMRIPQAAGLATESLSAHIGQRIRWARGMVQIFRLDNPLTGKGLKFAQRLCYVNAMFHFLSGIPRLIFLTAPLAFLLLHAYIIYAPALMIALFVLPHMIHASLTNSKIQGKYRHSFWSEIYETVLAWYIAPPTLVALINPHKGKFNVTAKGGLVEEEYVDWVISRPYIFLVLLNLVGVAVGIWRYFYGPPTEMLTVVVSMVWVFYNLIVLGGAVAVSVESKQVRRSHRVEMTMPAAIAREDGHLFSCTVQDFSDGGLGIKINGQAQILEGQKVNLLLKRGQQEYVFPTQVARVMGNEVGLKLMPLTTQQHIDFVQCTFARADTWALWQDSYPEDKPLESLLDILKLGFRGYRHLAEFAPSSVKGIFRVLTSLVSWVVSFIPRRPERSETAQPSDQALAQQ

[4] = target: the molecule itself; experiment: cryo-EM structure
[5] = target: the molecule itself; experiment: cryo-EM structure; remark: listed apart in the source

B1: BcsB (in the Bcs macrocomplex) (natural protein, E. coli 1094, UniProt P37652 26-779, looked up)
chain: TPATQPLINAEPAVAAQTEQNPQVGQVMPGVQGADAPVVAQNGPSRDVKLTFAQIAPPPGSMVLRGINPNGSIEFGMRSDEVVTKAMLNLEYTPSPSLLPVQSQLKVYLNDELMGVLPVTKEQLGKKTLAQMPINPLFISDFNRVRLEFVGHYQDVCEKPASTTLWLDVGRSSGLDLTYQTLNVKNDLSHFPVPFFDPSDNRTNTLPMVFAGAPDVGLQQASAIVASWFGSRSGWRGQNFPVLYNQLPDRNAIVFATNDKRPDFLRDHPAVKAPVIEMINHPQNPYVKLLVVFGRDDKDLLQAAKGIAQGNILFRGESVVVNEVKPLLPRKPYDAPNWVRTDRPVTFGELKTYEEQLQSSGLEPAAINVSLNLPPDLYLMRSTGIDMDINYRYTMPPVKDSSRMDISLNNQFLQSFNLSSKQEANRLLLRIPVLQGLLDGKTDVSIPALKLGATNQLRFDFEYMNPMPGGSVDNCITFQPVQNHVVIGDDSTIDFSKYYHFIPMPDLRAFANAGFPFSRMADLSQTITVMPKAPNEAQMETLLNTVGFIGAQTGFPAINLTVTDDGSTIQGKDADIMIIGGIPDKLKDDKQIDLLVQATESWVKTPMRQTPFPGIVPDESDRAAETRSTLTSSGAMAAVIGFQSPYNDQRSVIALLADSPRGYEMLNDAVNDSGKRATMFGSVAVIRESGINSLRVGDVYYVGHLPWFERVWYALANHPILLAVLAAISVILLAWVLWRLLRIISRRRLNPDNE
binding result [3]: binds | stoichiometry N [4]: ≤ 6

B2: full-length E. coli BcsB^His (natural protein, E. coli 1094, UniProt P37652 26-779, looked up)
chain: B1 chain
stoichiometry N [5]: 8

Results, then the molecule that gave them:

stoichiometry N [1]: 2
Molecule: BcsQ (in the Bcs macrocomplex) (from UniProt P37655 1-242) (natural protein)

stoichiometry N [2]: 2
Molecule: BcsQ^His (from UniProt P37655 1-242) (natural protein)
